Data: PMC6287947
Blank lines part the entries; values can stand above or below the molecule they belong to.

Key:
taxol-stabilized MTs [1] = experiment: co-sedimentation; 6His-Prp31 (10 nM) or 6His-Sf3A2 (13 nM) with increasing amounts of taxol-stabilized MTs (0.25–2 μM of tubulin dimers in MT polymers), 25 mM NaCl, RT 30 min, 100,000 g 40 min; SDS-PAGE and Coomassie staining; three independent experiments
taxol-stabilized MTs [2] = experiment: co-sedimentation; 6His-Prp31 (10 nM) or 6His-Sf3A2 (13 nM) incubated at RT for 30 min with 2 μM taxol-stabilized MTs (or 2 μM tubulin without Taxol), centrifuged at 100,000 g at RT for 40 min; supernatants and pellets by Western blotting

percent co-sedimented with MTs (taxol-stabilized MTs [1]): > 80%
percent co-sedimented with MTs (taxol-stabilized MTs [2]): > 80%
Molecule: 6His-Sf3A2 (from UniProt Q9VU15 1-264) (natural protein)

percent co-sedimented with MTs (taxol-stabilized MTs [1]): > 80%
percent co-sedimented with MTs (taxol-stabilized MTs [2]): > 80%
B1: 6His-Prp31 (natural protein)
chain: MSLADELLADLEEDNDNELEEEDSEMASAEDESLLAEKLAKPAPNLMDVDVTVQSVRELCKLRDSERLKNTLQQIEHYASRQRTAAEMLGSVESDPEYCLIVDANAIAVDIDNEISIVHKFTKEKYQKRFPELDSLIVGEIEYLLAVKELGNDLDQVKNNEKLQAILTQATIMIVSVTASTTQGTMLTPAEKAKIDEACEMAIELNNFKSKIYEYVESRMTFIAPNLSMIVGASTAAKLLGIAGGLSKLSKMPACNVQVLGAQKKTLSGFSQTQMLPHTGYVYYSQIVQDTAPDLRRKAARLVAAKSVLAARVDACHESVHGEIGLRFKEDVEKKLDKLQEPPPVKFIKPLPKPIEGSKKKRGGKRVRKMKERYALTEFRKQANRMNFGDIEEDAYQGDLGYSRGTIGKTGTGRIRLPQVDEKTKVRISKTLHKNLQKQQVYGGNTTVKRQISGTASSVAFTPLQGLEIVNPQAAERSQTEANAKYFSNTSGFMSVGQRTT
